Assay results reported in publication PMC9943658 (Nucleic Acids Research, 2023).

Target: the molecule itself
Experiment: SEC

| Protein | stoichiometry N |
| --- | --- |
| His-T7-hnRNP C1 ΔBASIC (natural protein) MASNVTNKTDPRSMNSRVFIGNLNTLVVKKSDVEAIFSKYGKIVGCSVHKGFAFVQYVNERNARAAVAGEDGRMIAGQVLDINLAAEPKVNRGKAGVKRSAAEMYGSSFDLDYDFQRDYYDRMYSYPARVPPPPPIARALQAIKKELTQIKQKVDSLLENLEKIEKEQSKQAVEMKNDKSEEEQSSSSVKKDETNVKMESEGGADDSAEEGDLLDDDDNEDRGDDQLELIKDDEKEAEEGEDDRDSANGEDDS | 4 |
| His-T7-hnRNP C1 wild type (natural protein, UniProt P07910-2 1-293, looked up) MASNVTNKTDPRSMNSRVFIGNLNTLVVKKSDVEAIFSKYGKIVGCSVHKGFAFVQYVNERNARAAVAGEDGRMIAGQVLDINLAAEPKVNRGKAGVKRSAAEMYGSSFDLDYDFQRDYYDRMYSYPARVPPPPPIARAVVPSKRQRVSGNTSRRGKSGFNSKSGQRGSSKSGKLKGDDLQAIKKELTQIKQKVDSLLENLEKIEKEQSKQAVEMKNDKSEEEQSSSSVKKDETNVKMESEGGADDSAEEGDLLDDDDNEDRGDDQLELIKDDEKEAEEGEDDRDSANGEDDS | 4 |
| His-T7-hnRNP C1 ΔRRMΔBASIC (natural protein) MASNVTNKTDPRSMNPKVNRGKAGVKRSAAEMYGSSFDLDYDFQRDYYDRMYSYPARVPPPPPIARALQAIKKELTQIKQKVDSLLENLEKIEKEQSKQAVEMKNDKSEEEQSSSSVKKDETNVKMESEGGADDSAEEGDLLDDDDNEDRGDDQLELIKDDEKEAEEGEDDRDSANGEDDS | 4 |
